# Columns and labels:
# Format in all cases: binding
# [1] = Probe fluorescence ratio response to linolenic acid relative to ADIFAB2; settings: response relative to ADIFAB2
# Outline: (§1)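 Fluorescently labeled rat intestinal FABP variants were read at two emission wavelengths, near the unbound maximum (about 420 to 480 nm) and the FFA-bound maximum (about 495 to 580 nm). R = Fλ1/Fλ2 after subtracting probe-free intensity; ΔR = R+agent − R0, normalized to ADIFAB2 (rI-FABP-L72A).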
# [2] = Probe fluorescence ratio response to palmitoleic acid relative to ADIFAB2; settings: response relative to ADIFAB2
# Outline: as §1
# [3] = Probe fluorescence ratio response to linoleic acid relative to ADIFAB2; settings: response relative to ADIFAB2
# Outline: as §1
# [4] = Probe fluorescence ratio response to palmitic acid relative to ADIFAB2; settings: response relative to ADIFAB2
# Outline: as §1
# [5] = Probe fluorescence ratio response to oleic acid relative to ADIFAB2; settings: response relative to ADIFAB2
# Outline: as §1
# [6] = Probe fluorescence ratio response to arachidonic acid relative to ADIFAB2; settings: arachidonic acid; response relative to ADIFAB2
# Outline: as §1
# [7] = Probe fluorescence ratio response to stearic acid relative to ADIFAB2; settings: response relative to ADIFAB2
# Outline: as §1
Molecule,DR/DR LNA [1],DR/DR POA [2],DR/DR LA [3],DR/DR PA [4],DR/DR OA [5],DR/DR AA [6],DR/DR SA [7]
"18I 31Y 73G 72A (protein, listed as Rattus norvegicus, PEPTIDE (1)...(131) wild-type rat intestinal fatty acid binding protein) AFDGTWKVDRNENYEKFIEKMGINVVKRKLYAHDNLKLTITQEGNKFTVKESSNFRNIDVVFELGVDFAYSAGDGTELTGTWTMEGNKLVGKFKRVDNGKELIAVREISGNELIQTYTYEGVEAKRIFKKE",2.706,2.637,2.559,1.886,1.632,1.796,0.860
"14R 18L 73L 117D 72A (protein, listed as Rattus norvegicus, PEPTIDE (1)...(131) wild-type rat intestinal fatty acid binding protein) AFDGTWKVDRNENREKFLEKMGINVVKRKLGAHDNLKLTITQEGNKFTVKESSNFRNIDVVFELGVDFAYSALDGTELTGTWTMEGNKLVGKFKRVDNGKELIAVREISGNELIQTDTYEGVEAKRIFKKE",1.790,0.801,1.766,0.294,0.847,1.029,0.213
"38H 62W 106V 117A 72A (protein, listed as Rattus norvegicus, PEPTIDE (1)...(131) wild-type rat intestinal fatty acid binding protein) AFDGTWKVDRNENYEKFMEKMGINVVKRKLGAHDNLKHTITQEGNKFTVKESSNFRNIDVVWELGVDFAYSAADGTELTGTWTMEGNKLVGKFKRVDNGKELIAVVEISGNELIQTATYEGVEAKRIFKKE",1.796,1.145,1.337,1.002,1.239,2.007,0.947
"72T 74S (protein, listed as Rattus norvegicus, PEPTIDE (1)...(131) wild-type rat intestinal fatty acid binding protein) AFDGTWKVDRNENYEKFMEKMGINVVKRKLGAHDNLKLTITQEGNKFTVKESSNFRNIDVVFELGVDFAYSTASGTELTGTWTMEGNKLVGKFKRVDNGKELIAVREISGNELIQTYTYEGVEAKRIFKKE",2.621,2.471,2.469,2.209,2.252,2.035,1.779
"14R 18L 31S 73F 117E 72A (protein, listed as Rattus norvegicus, PEPTIDE (1)...(131) wild-type rat intestinal fatty acid binding protein) AFDGTWKVDRNENREKFLEKMGINVVKRKLSAHDNLKLTITQEGNKFTVKESSNFRNIDVVFELGVDFAYSAFDGTELTGTWTMEGNKLVGKFKRVDNGKELIAVREISGNELIQTETYEGVEAKRIFKKE",2.296,1.290,1.947,0.693,1.146,1.241,0.378
"72A 74N (protein, listed as Rattus norvegicus, PEPTIDE (1)...(131) wild-type rat intestinal fatty acid binding protein) AFDGTWKVDRNENYEKFMEKMGINVVKRKLGAHDNLKLTITQEGNKFTVKESSNFRNIDVVFELGVDFAYSAANGTELTGTWTMEGNKLVGKFKRVDNGKELIAVREISGNELIQTYTYEGVEAKRIFKKE",1.701,1.536,1.681,1.308,1.629,1.614,1.299

# Source: US20060257938A1, “Method of screening for drugs that block ligand binding to a lipid binding protein” (priority 2005, published 2006)
